{"source": "patent US7271245B2", "about": "“Methods and compositions for inhibition of metastasis” (The Scripps Research Institute, priority 2004, dated 2007)", "key": {"[1]": {"test_system": "BMS human breast cancer cells", "assay": "Tumor cell adhesion under stationary conditions", "format": "cell-based", "conditions": "200 μM peptide, 30 min at 37° C.", "protocol": "(§1) FIGS. 3A, 3B, 3C, 3D, 3E. scFv Bc-12 and Bc-15 inhibit αvβ3 mediated adhesive breast cancer cell functions. (A) Adhesion of BMS human breast cancer cells to fibrinogen (Fg), vitronectin (VN) or type I collagen (Col I) in the absence or presence of 3 μM Bc-12, Bc-15 or their RGE mutants Mut-12, Mut-15, compared to 200 μM GRGDSPK peptide (SEQ ID NO: 11). Protein coating concentrations: 10 μg/ml (VN, Col I) or 20 μg/ml (Fg). Adhesion time: 30 min at 37° C. (B) Effect of scFvs on haptotactic BMS cell migration toward a fibrinogen substrate (16 hrs at 37° C. in transwell chambers with or without 2 μM Bc-12, Bc-15 or their RGE mutants Mut-12 or Mut-15, compared to 200 μM GRGDSPK peptide) (SEQ ID NO: 11). (C) Effect of scFvs on breast cancer cell arrest during blood flow. Metastatic BMS cells, labeled with hydroethidine, were suspended in human blood (anticoagulated with 50 nM PPACK) and perfused over a collagen I matrix at a venous wall shear rate of 50 s^−1. Under these conditions, breast cancer cells arrest by αvβ3 mediated binding to adherent, thrombus forming platelets. Tumor cell adhesion was quantified by image acquisition at 30 predefined positions during blood flow. Left: representative images of platelet signal (thrombi, green fluorescence) and tumor cell signal (red fluorescence) at identical x,y positions. Right: Number of arrested tumor cells in the presence of 3 μM non-function blocking anti αv scFv Bc-20 or function blocking anti αvβ3 scFvs Bc-12 or Bc-15. (D) scFv Bc-15 is internalized by human breast cancer cells and reduces cell proliferation. Left: confocal images of BMS cells incubated for 4 hrs with FITC-Bc-15 at 4° C. (binding) versus 37° C. (allowing internalization). Right: Phase contrast images of BMS cell cultures 4 days after seeding in the presence of 2 μM RGE containing scFv Mut-15, or RGD containing Bc-15. (E) Effect of scFv Bc-12 on the viability of matrix deprived BMS breast cancer cells in ultra-low-adhesion plates in the presence or absence of 3.7 μM scFv, or 14.36 μM camptothecin as apoptosis inducing control. Measurement of apoptosis was based on cytoplasmic histone-associated DNA fragments after 20 hrs.\nCell adhesion and migration. Tumor cell adhesion under stationary conditions was analyzed as detailed earlier (19). Adhesion buffer was Hanks balanced salt solution (HBSS) pH 7.4, 0.5% BSA, 1 mM MgCl2, 0.2 mM MnCl2. For inhibition, cells were incubated for 5 min at RT either with 3 μM scFv or 200 μM GRGDSPK (SEQ ID NO: 11) peptide, then plated in the presence of inhibitor and allowed to attach for 30 min at 37° C. Haptotactic tumor cell migration toward fibrinogen was analyzed in transwell chambers as detailed earlier. Rolli, M., et al., Proc. Natl. Acad. Sci. U.S.A 100: 9482-9487, 2003. […]"}, "[2]": {"test_system": "BMS human breast cancer cells", "assay": "Haptotactic tumor cell migration toward fibrinogen (transwell)", "format": "cell-based", "conditions": "200 μM peptide, 16 hrs at 37° C.", "protocol": "as §1, with “(E) Effect of scFv Bc-12 on the viability of matrix deprived BMS breast cancer cells in ultra-low-adhesion plates in the presence or absence of 3.7 μM scFv, or 14.36 μM camptothecin as apoptosis inducing control. Measurement of apoptosis was based on cytoplasmic histone-associated DNA fragments after 20 hrs.” left out\nCell adhesion and migration. Tumor cell adhesion under stationary conditions was analyzed as detailed earlier (19). […] Haptotactic tumor cell migration toward fibrinogen was analyzed in transwell chambers as detailed earlier. […]"}, "integrin αvβ3": {"test_system": "integrin αvβ3", "assay": "Flow cytometry, scFv binding to human tumor cell panel", "protocol": "FIGS. 1A, 1B, 1C. Patient derived scFvs Bc-12 and Bc-15 recognize tumor cell integrin αvβ3 in a cation and activation dependent manner. Flow cytometric analyses in TBS with or without 1 mM Ca^2+, 1 mM Mg^2+, or 0.2 mM Mn^2+ as indicated. Binding of soluble scFv detected after incubation with anti-Flag M2 murine mAb followed by FITC-anti mouse F(ab′)2. (A) scFv binding to human melanoma cells (M21: αvβ3 plus other αv integrins) (M21-LIIb: αIIbβ3, no αv integrins) or lung adenocarcinoma cells (UCLA-P3: αv integrins, no β3 integrin). (B) scFv binding to M21 melanoma cells. (C) scFv binding to variants of MDA-MB 435 human breast cancer cells that lack (β^3−) or express αvβ3 either in a non-activated (β3WT, ParentCo) or activated form (β3D723R, Bone, Lung, and BMS metastatic cancer cells isolated from breast cancer patient blood).\nFlow cytometry. scFv binding to human tumor cells was analyzed by flow cytometry, initially with cloned scFv phage and then with purified scFv protein. Per sample, 2×10^5 tumor cells were blocked with goat serum and incubated either with scFv phage (2-5×10^10) (1 h at RT) followed by mouse anti-M13 mAb (Serotec) (30 min on ice) and goat FITC-anti mouse (Pierce) (30 min on ice), or with purified scFv (1.25 to 40 μg/ml, routinely 10 to 15 μg/ml) (45 min on ice), followed by mouse anti-FLAG mAb M2 (Sigma) (30 min on ice) and goat FITC-anti mouse. Binding/washing buffer was TBS with or without divalent cations (1 mM Ca^2+, 1 mM Mg^2+, 0.2 mM Mn^2+). Alternatively, tumor cells were washed in 10 ml of plasma (prepared freshly from human blood anticoagulated with 50 nM D-Phe-D-Pro-D-arginyl chloromethyl ketone, PPACK, Felding-Habermann et al., J. Biol. Chem. 271: 5892-5900, 1996), resuspended in plasma and then incubated sequentially, without washing, with purified scFv (45 min on ice), followed by anti-FLAG M2 (30 min on ice) and FITC-anti mouse (30 min on ice). All samples were counter stained with propidium iodide (PI) and analyzed on a Becton-Dickinson FACScan, with live gate set to exclude PI positive cells.\nTo generate therapeutic reagents that specifically react with activated αvβ3, a phage display library of single chain antibody fragments (scFv) was exploited. This library was derived from cancer patient blood lymphocyte cDNA libraries and allowed us to test the hypothesis that the expressed immune repertoire contains antibodies that recognize integrin αvβ3, and distinguish between its activated and non-activated forms. Mao et al., Proc. Natl. Acad. Sci. U.S.A 96: 6953-6958, 1999. A subtractive panning approach was designed based on variants of MDA-MB 435 human breast cancer cells. […] Apparently, these cells are selected during metastasis, as variant cells isolated from lung and bone metastases in immune deficient mice express constitutively activated αvβ3. To establish a cell population that uniformly expresses non-activated αvβ3, MDA-MB 435 parental cells were cloned by limiting dilution, and clones tested for αvβ3 functionality. […] A cell line, MDA-MB 435 Lung-Lung, was established which expressed αvβ3 in a constitutively activated form. This variant stems from a lung metastase of an immune deficient mouse whose mammary fat pad had been injected with parental MDA-MB 435 cells. Felding-Habermann et al., Proc. Natl. Acad. Sci. U.S.A 98: 1853-1858, 2001; Rolli et al., Proc. Natl. Acad. Sci. U.S.A 100: 9482-9487, 2003. To enrich for the ability to colonize the lung from the blood stream, the Lung variant was subsequently injected intravenously, and tumor cells cultured 3 weeks later from the excised lung. Parent Combo cells were used to subtract the scFv phage library to eliminate antibodies against antigens shared by the MDA-MB 435 cell variants. […]"}, "BMS breast cancer cells": {"test_system": "BMS breast cancer cells", "assay": "Tumor cell arrest during blood flow", "format": "cell-based", "conditions": "3 μM scFv, human blood, collagen I matrix, shear rate 50 s^−1", "protocol": "FIGS. 3A, 3B, 3C, 3D, 3E. scFv Bc-12 and Bc-15 inhibit αvβ3 mediated adhesive breast cancer cell functions. (A) Adhesion of BMS human breast cancer cells to fibrinogen (Fg), vitronectin (VN) or type I collagen (Col I) in the absence or presence of 3 μM Bc-12, Bc-15 or their RGE mutants Mut-12, Mut-15, compared to 200 μM GRGDSPK peptide (SEQ ID NO: 11). Protein coating concentrations: 10 μg/ml (VN, Col I) or 20 μg/ml (Fg). Adhesion time: 30 min at 37° C. (B) Effect of scFvs on haptotactic BMS cell migration toward a fibrinogen substrate (16 hrs at 37° C. in transwell chambers with or without 2 μM Bc-12, Bc-15 or their RGE mutants Mut-12 or Mut-15, compared to 200 μM GRGDSPK peptide) (SEQ ID NO: 11). (C) Effect of scFvs on breast cancer cell arrest during blood flow. Metastatic BMS cells, labeled with hydroethidine, were suspended in human blood (anticoagulated with 50 nM PPACK) and perfused over a collagen I matrix at a venous wall shear rate of 50 s^−1. Under these conditions, breast cancer cells arrest by αvβ3 mediated binding to adherent, thrombus forming platelets. Tumor cell adhesion was quantified by image acquisition at 30 predefined positions during blood flow. Left: representative images of platelet signal (thrombi, green fluorescence) and tumor cell signal (red fluorescence) at identical x,y positions. […]\nTumor cell arrest during bloodflow. Breast cancer cell arrest during blood flow and interaction with platelets was measured as described. […] Adhesive events and cell interactions were visualized and recorded by fluorescence video microscopy and quantified by image acquisition at 30 predefined positions followed by computerized image analysis (MetaMorph, Universal Imaging). Tumor cells were stained with hydroethidine (red fluorescence) (20 μg/ml, 30 min, 37° C.), washed, and mixed with blood containing 10 μM mepacrine (green fluorescence). Blood cells, tumor cells, and platelets acquired green fluorescence and were visualized at 488/515 nm (excitation/emission). Tumor cells were identified by their unique red fluorescence at 543/590 nm. […]"}, "human melanoma cells": {"test_system": "human melanoma cells", "conditions": "mouse model; cited from earlier work"}}, "data": [{"molecule": "GRGDSPK [a fibronectin derived peptide, reference compound]", "values": [{"measurement": "adhesion to immobilized fibrinogen", "setting": "[1]", "value": "extent of inhibition by 3 μM scFv was similar to that observed with 200 μM GRGDSPK"}, {"measurement": "fibrinogen directed migration", "setting": "[2]", "value": "This effect was similar to that seen with 200 μM GRGDSPK"}]}, {"molecule": "Bc-20: non-RGD containing, non-function blocking anti αv scFv (protein) scFv: MAQVQLVQSGGGLVQPGGSLRLSCAASGFTFSSYWMSWVRQAPGKGLEWVANIKQDGSEKYYVDSVKGRFTISRDNAKNSLYLQMNSLRAEDTAVYYCARDGGFAGWAFDIWGQGTTVTVSSGGGGSGGGGSGGGGSDIQMTQSPSALSASVGDRVTITCRASQGLDNYLAWYQLQPGKAPKLLIYDAFTLQSGVPSRFSGGGSGTDFTLTISSLQPEDFATYFCQQLQSYPLTFGGGTKVEIKRGLGGLVDYKDDD", "values": [{"measurement": "reactivity with human tumor cells that express or lack αvβ3", "setting": "integrin αvβ3; M21, M21-LIIb, UCLA-P3 cells, flow cytometry", "value": "reacted with αv positive cells, regardless of the associated β subunit"}, {"measurement": "cation requirement of binding", "setting": "integrin αvβ3; TBS with or without divalent cations", "value": "did not require divalent metal cations"}, {"measurement": "breast cancer cell arrest during blood flow", "setting": "BMS breast cancer cells", "value": "no effect"}]}, {"molecule": "LM609: function blocking antibody against integrin αvβ3 (antibody, V domains shown) VH: EVQLEESGGGLVKPGGSLKLSCAASGFAFSSYDMSWVRQIPEKRLEWVAKVSSGGGSTYYLDTVQGRFTISRDNAKNTLYLQMSSLNSEDTAMYYCARHNYGSFAYWGQGTLVTVSA VL: ELVMTQTPATLSVTPGDSVSLSCRASQSISNHLHWYQQKSHESPRLLIKYASQSISGIPSRFSGSGSGTDFTLSINSVETEDFGMYFCQQSNSWPHTFGGGTKLEIKRA", "values": [{"measurement": "metastatic activity of human melanoma cells", "setting": "human melanoma cells", "value": "inhibited metastatic activity of human melanoma cells in a mouse model"}]}]}
